The values that follow come from US20120189542A1 (published 2012).

As usually defined, the Kd is the free concentration of one partner at which half of the binding sites on the other are occupied at equilibrium, for simple one-to-one binding.

This test deals with T1, human CD19 on CD19+ human lymphoma cells (Raji, Daudi, Ramos) (human, UniProt P15391 20-556).
T1 construct: whole, on cells; The target is presented on cells; also called CD19 antigen; CD19 molecule
T1 sequence (looked up): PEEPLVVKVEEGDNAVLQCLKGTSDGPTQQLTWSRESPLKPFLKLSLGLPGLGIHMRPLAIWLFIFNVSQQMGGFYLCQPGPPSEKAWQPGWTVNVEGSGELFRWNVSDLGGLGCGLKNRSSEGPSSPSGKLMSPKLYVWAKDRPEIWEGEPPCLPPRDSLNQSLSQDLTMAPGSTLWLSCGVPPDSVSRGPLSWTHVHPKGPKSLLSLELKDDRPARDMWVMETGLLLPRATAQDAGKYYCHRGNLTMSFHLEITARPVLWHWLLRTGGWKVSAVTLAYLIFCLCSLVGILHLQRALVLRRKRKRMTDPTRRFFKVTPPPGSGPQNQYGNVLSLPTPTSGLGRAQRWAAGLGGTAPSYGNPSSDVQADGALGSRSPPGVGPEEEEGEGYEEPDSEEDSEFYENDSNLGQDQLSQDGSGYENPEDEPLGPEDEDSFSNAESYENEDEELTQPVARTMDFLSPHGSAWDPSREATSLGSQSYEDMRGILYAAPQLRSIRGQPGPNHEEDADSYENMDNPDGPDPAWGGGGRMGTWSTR
The test can be described thus: direct cell surface binding of 125I-labeled antibody to Raji cells, Scatchard plot analysis.

B1: humanized anti-CD19 antibody hA19 (antibody, V domains shown)
VH: QVQLQQSGAEVKKPGSSVKVSCKASGYAFSSYWMNWVRQRPGQGLEWIGQIWPGDGDTNYNGKFKGRATITADESTNTAYMELSSLRSEDTAFYSCARRETTTVGRYYYAMDYWGQGTTVTVSS
VL: DIQLTQSPSSLSASVGDRVTITCKASQSVDYDGDSYLNWYQQIPGKAPKLLIYDASNLVSGIPPRFSGSGSGTDYTFTISSLQPEDIATYHCQQSTEDPWTFGGGTKLQIKR
notes: It was expressed from pdHL2, which carries human IgG heavy and light chain constant regions (IgG1 per the general description); also called humanized A19 antibody
B1 registered a Kd of 1.1 nM. This lies in the single-digit nanomolar range.
